Measured values reported in US20250236901A1, “METHOD OF DETECTING A MICROORGANISM HAVING HIPPURICASE ACTIVITY” (BIOSYNTH AG, priority 2022, published 2025).

Tested on: Campylobacter jejuni DSM 4688
Assay: Detection of hippuricase activity with 4-HHA, 4-aminoantipyrine and oxidizing reagent (color / absorbance at 505 nm)
Format: cell-based
Settings: FIG. 7B; varied 0 to 4 U/mL; 10 mM 4-HHA; 0.5 mM 4-AAP, 4.5 U/mL HRP, 10 mM glucose
Description: Campylobacter jejuni DSM 4688 (C. j., catalase positive), Eschericha coli (E. coli, catalase positive) and Campylobacter coli DSM 4689 (C. c., catalase positive), Streptococcus agalactiae ATCC®12386 (S. a., catalase negative) and Streptococcus pyogenes ATCC®19615 (S. p., catalase negative) were cultivated on Columbia Agar with sheep blood (Thermofischer PB5039A) at 37° C. for 48 h, both Campylobacter strains were cultivated under microaerophilic atmosphere (Oxoid, Campylgen CN0025A).
Biomass of colonies were suspended in sterile phosphate buffer (100 mM, pH 7.4) and the optical density OD was determined and set to OD600 of 0.9.
Two hundred μL of cell suspensions were mixed with 25 μL of 4-hydroxyhippuric acid (4-HHA, Bachem, 4005059) stock solution, prepared in 100 mM phosphate buffer pH adjusted to 7.4 in a microtiter plate (SpektraMax M5, Molecular Devices) and incubated for 70 minutes at 37° C. […] The absorbance at 505 nm was recorded with a plate reader at room temperature. […]
Two hundred μL of cell suspensions were mixed with 25 μL of 100 mM 4-hydroxyhippuric acid (4-HHA, Bachem 4005059) prepared in 100 mM phosphate buffer pH adjusted to 7.4) in a microtiter plate and incubated for 1 h at 37° C. […] The absorbance at 505 nm was recorded with a plate reader (SpektraMax M5, Molecular Devices) at room temperature. […]

B1: GOD: glucose oxidase (GOD, Merck G2133), hydrogen peroxide-generating enzyme (protein, UniProt P13006 17-605, looked up)
Glucose oxidase: LPHYIRSNGIEASLLTDPKDVSGRTVDYIIAGGGLTGLTTAARLTENPNISVLVIESGSYESDRGPIIEDLNAYGDIFGSSVDHAYETVELATNNQTALIRSGNGLGGSTLVNGGTWTRPHKAQVDSWETVFGNEGWNWDNVAAYSLQAERARAPNAKQIAAGHYFNASCHGVNGTVHAGPRDTGDDYSPIVKALMSAVEDRGVPTKKDFGCGDPHGVSMFPNTLHEDQVRSDAAREWLLPNYQRPNLQVLTGQYVGKVLLSQNGTTPRAVGVEFGTHKGNTHNVYAKHEVLLAAGSAVSPTILEYSGIGMKSILEPLGIDTVVDLPVGLNLQDQTTATVRSRITSAGAGQGQAAWFATFNETFGDYSEKAHELLNTKLEQWAEEAVARGGFHNTTALLIQYENYRDWIVNHNVAYSELFLDTAGVASFDVWDLLPFTRGYVHILDKDPYLHHFAYDPQYFLNELDLLGQAAATQLARNISNSGAMQTYFAGETIPGDNLAYDADLSAWTEYIPYHFRPNYHGVGTCSMMPKEMGGVVDNAARVYGVQGLRVIDGSIPPTQMSSHVMTVFYAMALKISDAILEDYASMQ
GOD enzyme activity sufficient for the reaction: 1 U/mL
